According to paper PMC8174753:

System: T1, GtrR (Burkholderia cenocepacia H111), ORF:a5d7dc98
T1 sequence: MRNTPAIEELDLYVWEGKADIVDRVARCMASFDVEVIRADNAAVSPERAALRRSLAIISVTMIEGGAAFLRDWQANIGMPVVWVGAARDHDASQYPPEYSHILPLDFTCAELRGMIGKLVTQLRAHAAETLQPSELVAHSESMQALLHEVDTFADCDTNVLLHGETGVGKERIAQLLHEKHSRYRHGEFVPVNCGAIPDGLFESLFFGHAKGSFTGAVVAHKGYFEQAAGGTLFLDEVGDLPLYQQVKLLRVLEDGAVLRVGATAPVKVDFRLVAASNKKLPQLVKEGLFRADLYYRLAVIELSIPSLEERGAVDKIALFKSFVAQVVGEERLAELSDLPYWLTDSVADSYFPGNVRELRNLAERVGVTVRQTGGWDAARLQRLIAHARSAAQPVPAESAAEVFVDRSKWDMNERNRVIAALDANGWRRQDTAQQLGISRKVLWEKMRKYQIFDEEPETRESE
Experiment: EMSA
Details: Binding reactions per manufacturer's instructions (Thermo), 3'-biotin probes, 5% polyacrylamide gel; buffer, salt, pH and temperature not stated

“GGCTTGCGTATTTCTGGCCCGGTTGATTGATTTTGGTTGTGATTTTTTGCCACGCAACGTCGAAAACGCATCGCGCGGCCCCAGTTCGCTCTCGTATCGAAAATGAGATTTTCGATTTCGCAGACAATTGTTAAATGCGGAACCGATATCCGTCAACCTGAGAAAACGGGCGGCTTGCGTAAAATCGAAATCGCGGGTACCGGTTTAAGGTTGCAATGCAGCA (double strand) [Bcal3178 promoter 223 bp]” was tested, and the binding was “no binding”.
